Experimental data as given in article PMC9674292.

What was measured:
EGFP-VopF (V. cholerae) = assay: stepwise photobleaching of single-molecule speckles (TIRF, live cells); XTC cells with very low levels of EGFP-VopF or EGFP-VopL; speckles arrested with 10 nM latrunculin A; continuous 488-nm illumination; distribution of bleaching steps compared with a binomial model (probability of EGFP being fluorescent 0.75)
[1] = target: EGFP-VopL (V. parahaemolyticus); assay: as above

Row | Substance | stoichiometry N (EGFP-VopF (V. cholerae)) | stoichiometry N [1]
1 | EGFP-VopF (natural protein) | 2 | –
2 | EGFP-VopL (natural protein) | – | 2
